The target of test [1] is T1, PSGL-1 on KG-1 cells (human) (UniProt Q14242).
T1 sequence (sulfated tyrosine residues at the N-terminal site, looked up): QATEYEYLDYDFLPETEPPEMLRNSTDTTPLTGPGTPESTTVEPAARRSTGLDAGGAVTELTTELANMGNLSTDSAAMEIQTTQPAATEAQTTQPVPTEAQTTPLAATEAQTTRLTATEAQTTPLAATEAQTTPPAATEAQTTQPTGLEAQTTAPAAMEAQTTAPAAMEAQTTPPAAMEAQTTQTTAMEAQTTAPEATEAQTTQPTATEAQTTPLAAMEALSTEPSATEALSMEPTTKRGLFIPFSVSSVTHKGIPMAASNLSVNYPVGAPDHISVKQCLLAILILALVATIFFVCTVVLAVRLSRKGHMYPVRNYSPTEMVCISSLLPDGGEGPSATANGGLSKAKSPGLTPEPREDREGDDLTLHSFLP
Briefly: FACS, KG-1 cells. For orientation: In flow cytometry, cells or beads pass a laser one at a time.

Test [2] has as its target T1, PSGL-1 on KG-1 cells (human). Briefly: FACS on KG-1 cells.
The target is the same in test [3]. The experiment in a line: FACS, KG-1 cells, 5 ng tetramers.
Test [4] deals with Y1 scFv. The experiment in a line: competition ELISA: Y1 0.25 µg/well preincubated with peptide at 25 µM, residual binding to glycocalicin. The conditions noted are these: remark: other sources report otherwise. In general terms: ELISA stands for enzyme-linked immunosorbent assay.
Y1 scFv, sequence (chain, as listed by the source): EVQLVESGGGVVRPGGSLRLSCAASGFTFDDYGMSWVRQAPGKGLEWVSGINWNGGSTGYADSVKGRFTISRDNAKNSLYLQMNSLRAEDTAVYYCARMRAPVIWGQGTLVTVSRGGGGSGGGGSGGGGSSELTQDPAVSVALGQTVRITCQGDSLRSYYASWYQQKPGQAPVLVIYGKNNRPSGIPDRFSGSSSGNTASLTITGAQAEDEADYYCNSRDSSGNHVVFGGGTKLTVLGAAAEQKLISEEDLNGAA
For test [5], the target named is Y1 scFv. The experiment in a line: competition ELISA: Y1 0.25 µg/well preincubated with peptide at 0.5 µM, residual binding to glycocalicin. The conditions noted are these: remark: other sources report otherwise.
For test [6], the target named is Y1 scFv. The experiment in a line: competition ELISA: Y1 0.25 µg/well preincubated with peptide at 2.5 µM, residual binding to glycocalicin. Particulars: remark: other sources report otherwise.
The target in test [7] is Y1 scFv. Briefly: competition ELISA: Y1 0.25 µg/well preincubated with peptide at 200 µM, residual binding to glycocalicin. Particulars: remark: other sources report otherwise.
Test [8] has as its target Y1 scFv. The experiment in a line: competitive FACS: Y1-scFv 1 µg preincubated with peptide at 2.5 µM, residual binding to washed platelets. Particulars: remark: other sources report otherwise.
The target in test [9] is Y1 scFv. Briefly: competitive FACS: Y1-scFv 1 µg preincubated with peptide at 200 µM, residual binding to washed platelets. Particulars: remark: other sources report otherwise.

No end group written: not given here. *: point of attachment. sulfate = O=S(=O)(O)*

B1: Y1-biotag tetramers with streptavidin-PE (protein, part only; not given: streptavidin-PE carrier, not shown: another chain or arm of the molecule; large carriers; small tags and cut ends)
scFv 1: MEVQLVESGGGVVRPGGSLRLSCAASGFTFDDYGMSWVRQAPGKGLEWVSGINWNGGSTGYADSVKGRFTISRDNAKNSLYLQMNSLRAEDTAVYYCARMRAPVIWGQGTLVTVSRGGGGSGGGGSGGGGSSELTQDPAVSVALGQTVRITCQGDSLRSYYASWYQQKPGQAPVLVIYGKNNRPSGIPDRFSGSSSGNTASLTITGAQAEDEADYYCNSRDSSGNHVVFGGGTKLTVLGGGGLNDIFEAQKIEWHE
scFv 2: MEVQLVESGGGVVRPGGSLRLSCAASGFTFDDYGMSWVRQAPGKGLEWVSGINWNGGSTGYADSVKGRFTISRDNAKNSLYLQMNSLRAEDTAVYYCARMRAPVIWGQGTLVTVSRGGGGSGGGGSGGGGSSELTQDPAVSVALGQTVRITCQGDSLRSYYASWYQQKPGQAPVLVIYGKNNRPSGIPDRFSGSSSGNTASLTITGAQAEDEADYYCNSRDSSGNHVVFGGGTKLTVLGGGGLNDIFEAQKIEWHE
scFv 3: MEVQLVESGGGVVRPGGSLRLSCAASGFTFDDYGMSWVRQAPGKGLEWVSGINWNGGSTGYADSVKGRFTISRDNAKNSLYLQMNSLRAEDTAVYYCARMRAPVIWGQGTLVTVSRGGGGSGGGGSGGGGSSELTQDPAVSVALGQTVRITCQGDSLRSYYASWYQQKPGQAPVLVIYGKNNRPSGIPDRFSGSSSGNTASLTITGAQAEDEADYYCNSRDSSGNHVVFGGGTKLTVLGGGGLNDIFEAQKIEWHE
scFv 4: MEVQLVESGGGVVRPGGSLRLSCAASGFTFDDYGMSWVRQAPGKGLEWVSGINWNGGSTGYADSVKGRFTISRDNAKNSLYLQMNSLRAEDTAVYYCARMRAPVIWGQGTLVTVSRGGGGSGGGGSGGGGSSELTQDPAVSVALGQTVRITCQGDSLRSYYASWYQQKPGQAPVLVIYGKNNRPSGIPDRFSGSSSGNTASLTITGAQAEDEADYYCNSRDSSGNHVVFGGGTKLTVLGGGGLNDIFEAQKIEWHE
modifications: Each chain pos 251: Lys of the BirA tag carries biotin, written K. The four chains are held non-covalently on streptavidin conjugated to phycoerythrin, which is not given.
For B1, the fold more reactive in [1] was > 100 fold. The fold increase in sensitivity of the binding in [2] is > 100 fold. Also, in test [3], the fold higher response than other Y1 antibody forms was 10 to 20 fold.

For the molecule GDEGDTDLY(sulfate)DY(sulfate)Y(sulfate)PEEDTE [P-1-S], the Residual Binding of Y1 (% of baseline) in the test with Y1 scFv [4] is 25%; with Y1 scFv [5] it was 89%; in the test with Y1 scFv [6], 62%; with Y1 scFv [7] it was 0%. For the same molecule, the results for the Residual Binding of Y1 (% of baseline) (Geo Mean) with Y1 scFv [8] and in the test with Y1 scFv [9] were 41% and 5%, respectively.
